# Measured values as given in US20210388330A1.
# B1: Recombinant iduronate-2-sulfatase (IDS), produced in human HT-1080 cells (enzyme)
# chain: SETQANSTTDALNVLLIIVDDLRPSLGCYGDKLVRSPNIDQLASHSLLFQNAFAQQAVCAPSRVSFLTGRRPDTTRLYDFNSYWRVHAGNFSTIPQYFKENGYVTMSVGKVFHPGISSNHTDDSPYSWSFPPYHPSSEKYENTKTCRGPDGELHANLLCPVDVLDVPEGTLPDKQSTEQAIQLLEKMKTSASPFFLAVGYHKPHIPFRYPKEFQKLYPLENITLAPDPEVPDGLPPVAYNPWMDIRQREDVQALNISVPYGPIPVDFQRKIRQSYFASVSYLDTQVGRLLSALDDLQLANSTIIAFTSDHGWALGEHGEWAKYSNFDVATHVPLIFYVPGRTASLPEAGEKLFPYLDPFDSASQLMEPGRQSMDLVELVSLFPTLAGLAGLQVPPRCPVPSFHVELCREGKNLLKHFRFRDLEEDPYLPGNPRELIAYSQYPRPSDIPQWNSDKPSLKDIKIMGYSIRTIDYRYTVWVGFNPDEFLANFSDIHAGELYFVDSDPLQDHNMYNDSQGGDLFQLLMP
# modifications: mannose-6-phosphate residues on N-linked oligomannose glycans; M6P content 2.56 pmol M6P/pmol protein (Table 3)
# B2: CIP-treated dephosphorylated iduronate-2-sulfatase (dpIDS) (enzyme)
# chain: B1 chain
# modifications: dephosphorylated with acrylic bead-bound calf intestine alkaline phosphatase; M6P content reduced to 0.15 pmol M6P/pmol protein (Table 3)
# Assays:
# [1] = molecular target: soluble mannose-6-phosphate receptor (sM6PR); assay: Biacore (SPR) analysis of binding to sM6PR, two KD values fitted
# [2] = molecular target: soluble mannose-6-phosphate receptor (sM6PR); assay: Biacore (SPR), dpIDS compared with untreated IDS
Binder,KD1 [1] [nM],KD2 [1] [nM],fold reduction of binding affinity of KD2 against IDS [2] [fold]
B1,58.2,0.813,
B2,32.1,5.94,7
